In publication PMC8489136, “LncRNA MALAT1 was regulated by HPV16 E7 independently of pRB in cervical cancer cells”:

B1: MALAT1 promoter probe2 (dsDNA)
DNA 1: AGCTGCCACCCCGCCCCCATGCCAT
DNA 2: ATGGCATGGGGGCGGGGTGGCAGCT
modifications: 5'-biotin
B2: MALAT1 promoter probe1 (dsDNA)
DNA 1: CAGGCGTTAGGGCGGGGCGCGCGTGC
DNA 2: GCACGCGCGCCCCGCCCTAACGCCTG
modifications: 5'-biotin

Biological target: HPV16 E7 (His-E7) (Human papillomavirus type 16, UniProt P03129 1-98)
Test: EMSA; inhibited by excess unlabeled probe; EMSA buffer, salt, pH and temperature not given; UV crosslinking: 20 min incubation in binding buffer (composition not given), 254 nm 30 min on ice
Conditions: protein: recombinant; tags: His; label: biotin; blunt

Chain of HPV16 E7 (His-E7) (P03129 whole entry): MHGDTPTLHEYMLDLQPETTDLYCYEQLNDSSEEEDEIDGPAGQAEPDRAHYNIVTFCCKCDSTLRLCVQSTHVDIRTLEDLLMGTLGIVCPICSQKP

Binder	binding result
B1	binds
B2	binds
